Results from article doi:10.1101/2020.04.03.024018, “High-affinity agonist binding to C5aR results from a cooperative two-site binding mechanism” (bioRxiv, 2020).

Assays:
Settings in all cases: both partners purified
[1] = target: T1, C5a anaphylatoxin chemotactic receptor 1 (C5aR), wild type (human, UniProt P21730 1-350, sulfonated tyrosines (sulfonation detected by anti-sulfotyrosine Western blot; eliminated by the Y11F and Y14F mutations)); assay: single-molecule force spectroscopy (force-volume AFM + FD-based AFM); ligand on the AFM tip (PEG27 linker, tris-NTA-Ni2+); receptor in DOPC/CHS liposomes adsorbed on mica; low and high loading rates combined (10^2-10^7 pN/s); Friddle-Noy-de Yoreo fit, Kd calculated from dGbu; 20 mM HEPES, 300 mM NaCl, about 24 °C
T1 construct: human G protein-coupled C5a receptor (C5aR), wild type; also called C5aR^WT; wtC5aR; source: HEK-293S GnTI- cells (BacMam), purified (Ni-NTA, anti-Flag M1 resin, SEC), reconstituted in DOPC/CHS liposomes; not shown: His8, C-terminal, kept
T1 sequence (looked up): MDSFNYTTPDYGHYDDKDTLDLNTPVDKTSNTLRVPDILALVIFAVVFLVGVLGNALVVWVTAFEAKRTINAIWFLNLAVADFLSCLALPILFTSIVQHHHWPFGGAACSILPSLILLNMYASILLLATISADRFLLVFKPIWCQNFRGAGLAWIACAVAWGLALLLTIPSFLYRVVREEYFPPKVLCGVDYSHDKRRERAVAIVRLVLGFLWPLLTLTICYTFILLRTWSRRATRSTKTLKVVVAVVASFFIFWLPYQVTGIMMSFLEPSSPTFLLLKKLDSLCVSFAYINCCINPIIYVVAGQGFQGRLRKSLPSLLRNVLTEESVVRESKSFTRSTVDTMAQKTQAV

[2] = target: T1, C5a anaphylatoxin chemotactic receptor …; assay: single-molecule force spectroscopy (FD-based AFM); ligand on the AFM tip (PEG27 linker, tris-NTA-Ni2+); receptor in DOPC/CHS liposomes adsorbed on mica; high loading rates only (10^5-10^7 pN/s); Friddle-Noy-de Yoreo fit, Kd calculated from dGbu; 20 mM HEPES, 300 mM NaCl, about 24 °C
[3] = target: T2, C5aRΔTyr mutant (Y11F and Y14F) (human, UniProt P21730 1-350, Y11F | Y14F); assay: as above
T2 construct: human C5aR with the two sulfation-site tyrosines changed; A legend and the methods print the second mutation as F14F; also called C5aR-d2Y; source: HEK-293S GnTI- cells (BacMam), purified, reconstituted in DOPC/CHS liposomes
T2 sequence (looked up): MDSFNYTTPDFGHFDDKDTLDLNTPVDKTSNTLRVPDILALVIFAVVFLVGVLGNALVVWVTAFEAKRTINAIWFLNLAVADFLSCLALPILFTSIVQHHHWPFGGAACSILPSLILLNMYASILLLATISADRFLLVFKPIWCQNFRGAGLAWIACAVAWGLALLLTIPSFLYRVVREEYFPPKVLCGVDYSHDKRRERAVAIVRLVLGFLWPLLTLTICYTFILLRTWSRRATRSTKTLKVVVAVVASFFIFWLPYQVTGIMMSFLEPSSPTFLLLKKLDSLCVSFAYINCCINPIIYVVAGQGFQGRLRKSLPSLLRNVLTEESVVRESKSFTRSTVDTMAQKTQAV

B1: complement C5a anaphylatoxin (ligand, UniProt P01031 678-751, looked up)
chain: TLQKKIEEIAAKYKHSVVKKCCYDGACVNNDETCEQRAARISLGPRCIKAFTECCVVASQLRANISHKDMQLGR
notes: C5a anaphylatoxin, 74-aa glycoprotein, cut product of complement C5; C-terminal residue R74; numbers count on: the mature C5a; Held on the AFM tip through a PEG27 linker and tris-NTA-Ni2+; also called C5a ligand; endogenous C5a ligand
**Q.** B1 was tested. Which Kd [1] did it give?
**A.** The Kd was ~0.00609 µM.

**Q.** What about the Kd [2] of the same binder?
**A.** The Kd was ~0.001 µM.

**Q.** And the Kd [3]?
**A.** Its Kd is ~20000 µM.
